Experiment [1] deals with full-length avian ANP32A (Gallus gallus) (Gallus gallus). As to the kind of experiment: NMR titration.
Experiment [2] deals with LRR of ANP32A alone (not stated (human and Gallus gallus ANP32A were used)). Nature of the experiment: NMR titration.

Usually Kd stands for the constant that tells how readily two partners part at equilibrium. A low value points to higher affinity. Turning to “627-NLS domains of PB2, E627 form (amino acids 538-759, avian H5N1 A/duck/Shantou/4610/2003) (domain or fragment)”, in experiment [1], the Kd is > 3000 µM.

Consider “the 627 domain (E627 or K627 not stated) (domain or fragment)”, for which the Kd in experiment [2] was > 1500 µM.

Values taken from PMC7374565.
